Measurements: the supplement of paper PMC10567573

B1: SLC2A12 (parent)
chain: TRIMIGLTLVFFVQITGQPNILFY
B2: ZNF193 (parent)
chain: QKRYHCKECGKVFSQSAGLIQHQR

Variants of: B1
Assay: protein stability index of a GFP-peptide fusion (GPS, HEK-293T) (PSI 1-6); higher = more stable
Conditions: c terminus: a fixed tail appended
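Also: lentivirally expressed fusions sorted by FACS into six bins by GFP to DsRed ratio, PSI derived from sequencing read proportions per bin multiplied by bin number.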

Protein stability index: each site, then its substitutions
I21: T 3.91
Y24: P 3.53 | M 4.11
F23: G 3.83 | Y 3.75
T16: W 2.42
T1: A 2.48 | G 3.81 | Q 2.42 | I 3.72
V10: E 3.41 | F 3.06 | N 3.65
I5: F 3.16 | A 2.6 | E 3.74 | H 3.25
T8: L 3.33 | N 3.93
N20: F 2.45
M4: H 2.79 | Q 2.88
F12: Y 3.14
L22: K 1.94
G17: V 2 | D 3.49
I15: C 3.47 | T 3.01
F11: Y 3.02 | N 2
L7: W 2.84 | I 2.63 | E 2.62
R2: W 3.62 | M 4.67
V13: S 2.7 | L 2.69 | Y 3.14
Q18: D 2.16 | T 2.7

Variants of: B2
Assay: as above
Conditions: c terminus: a fixed tail appended

Protein stability index: each site, then its substitutions
H22: N 1.67 | F 2.66 | D 2.1 | M 1.84 | Q 2.1 | V 1.33 | L 1.75 | T 2.05 | I 1.73 | K 2.14 | G 1.41 | S 1.9 | P 1.64 | C 2.04 | Y 1.5 | R 1.62 | W 1.99 | A 1.16 | E 1.59
F13: P 2.39 | G 1.87 | S 2.12 | N 1.67 | M 1.82 | W 2.03 | T 1.91 | A 1.81 | D 1.72 | V 2.05 | R 2.17 | L 2.5 | Y 1.99 | H 3.12 | Q 2.29 | I 2.42 | E 2.42 | C 2.15 | K 2.25
L19: N 2.56 | W 2.41 | G 2.37 | R 2.55 | P 2.54 | A 2.45 | T 1.94 | H 2.58 | V 2.12 | Y 2.42 | C 3.12 | S 1.97 | D 2.35 | Q 2.45 | I 2.2 | K 2.34 | M 2.35 | E 2.31 | F 2.43
S14: D 3.47 | N 2.78 | A 3.47 | C 2.58 | Y 3.25 | E 3.77 | Q 2.86 | G 2.54 | P 2.72 | K 3.23 | F 2.68 | H 2.98 | I 2.64 | R 3.03 | M 2.93 | L 3.16 | V 2.53 | T 3.06 | W 2.08
C9: Y 2.7 | P 3.04 | W 2.58 | N 3.17 | Q 3.19 | S 3.11 | V 3.07 | T 3.27 | R 3.38
V12: H 2.82 | M 2.6 | E 3.23 | K 3.2 | P 2.17 | I 2.76 | S 3.27 | D 3.27 | L 2.25 | Q 2.82 | A 2.43 | W 2.82 | F 2.67 | C 2.81 | Y 2.75 | R 3.33 | T 3.52 | N 2.78 | G 2.77
S16: G 2.7 | W 2.99 | R 3.97 | L 3.59 | A 3.71 | N 3.11 | I 2.98 | K 3.53 | C 2.9 | M 3.72 | E 4.39 | H 3.77 | V 2.62 | D 2.47 | P 3.44 | Q 3.88 | F 2.86 | T 2.27 | Y 3.8
G10: P 2.33 | C 1.83 | M 2.12 | D 1.79 | Y 1.67 | I 1.51 | T 1.83 | F 2.03 | A 1.96 | H 1.84 | L 1.95 | W 2.02 | K 1.98 | E 2.01 | S 2.11 | R 2 | Q 2.29 | N 2.5 | V 1.46
A17: V 2.48 | H 2.66 | P 2.02 | G 2.54 | M 1.82 | S 3.02 | I 2.28 | K 3.09 | Y 1.94 | C 2.45 | N 3.05 | E 3.51 | D 3.42 | Q 2.76 | T 2.46 | L 2.22 | W 2.86 | R 3.21 | F 2.27
Q23: N 2.36 | W 1.97 | V 2.37 | Y 2.4 | P 1.74 | M 3.13 | D 2.29 | A 2.5 | R 2.85 | I 2.57 | E 2.55 | S 2.54 | F 2.05 | K 3.36 | G 2.07 | C 2.81 | T 2.51 | L 2.69 | H 2.97
Q15: D 4.51 | Y 2.73 | C 3.93 | M 2.06 | I 1.92 | G 2.8 | K 3.45 | A 2.83 | S 4.11 | H 2.91 | F 2.28 | L 1.99 | P 1.58 | R 3.08 | W 2.06 | E 3.85 | N 4.24 | V 2.16 | T 4.01
R24: E 3.53 | Y 2.5 | C 4.52 | W 2.1 | Q 2.48 | V 2.28 | A 2.83 | L 1.43 | S 2.43 | H 3.44 | I 1.96 | M 2.44 | T 2.33 | D 3.33 | F 2 | K 3.65 | P 2.44 | G 3.05 | N 2
G18: S 2.22 | I 2.4 | A 3.12 | P 2.29 | D 4.32 | N 2.32 | Y 2.31 | R 2.86 | E 4.13 | F 2.26 | V 2.09 | M 2.06 | H 2.84 | Q 3.55 | C 2.7 | K 2.8 | W 1.68 | T 2.65 | L 3.01
Q21: M 2.55 | I 2.1 | D 3.82 | Y 2.21 | E 3.7 | T 2.61 | V 2.37 | P 2.08 | C 3.06 | F 1.91 | G 2.67 | K 2.6 | N 3.02 | L 2.57 | H 2.88 | W 2.44 | R 2.69 | S 2.47 | A 3.2
K11: E 3.1 | G 1.83 | M 3.23 | A 3.19 | T 2.64 | S 2.37 | L 2.47 | R 2.01 | W 2.32 | C 2.3 | H 2.34 | Q 3.04 | D 1.88 | N 1.66 | P 2.12 | I 2.32 | Y 1.7 | F 1.82 | V 2.18
I20: C 3.95 | W 2.4 | F 2.45 | A 3.06 | S 2.69 | Y 2.98 | Q 2.83 | P 2.27 | G 2.38 | M 2.86 | N 2.5 | K 3.26 | D 3.02 | E 2.91 | R 3.5 | L 3.08 | T 3.09 | V 3.22 | H 3.31
